We go through one molecule from patent US20210340238A1, “TGFß1 INHIBITORS AND USE THEREOF” (Scholar Rock, Inc., priority 2018, published 2021).

For assay [1], the system named is Matrix-associated proTGFβ1 vs Cell-associated proTGFβ1. The assay is described as follows: MSD-SET binding, matrix vs cell bias (G/D). The settings on record: ratio of cell average KD to ECM average KD. More on the design: species or system human. An excerpt:
(§1) Column (A) of the table provides monoclonal antibodies with discrete amino acid sequences. […] Columns (B), (C), (E) and (F) provide affinities of each of the listed antibodies, measured in KD, towards the antigen complex as indicated, respectively. […] Similarly, Average KD values calculated from (E) and (F) are shown in the corresponding column (G), which collectively represents affinities of the antibodies to cell-surface or cell-associated proTGF complexes. Finally, relative ratios between the average KD values from columns (D) and (G) are expressed as fold bias” in column (H). Thus, the greater the numerical of column (H) is, the greater bias exists for the particular antibody, when comparing binding preferences of the antibody for matrix-associated complexes to cell-surface complexes. This is one way of quantitatively representing and comparing inherent bias of antibodies to their target complexes. Such analyses may be useful in guiding the selection process for a candidate antibody for particular therapeutic use. Select antibodies of the present disclosure, as measured by MSD-SET, show context-bias (i.e., greater than five-fold bias) or unbias (i.e., less than 5-fold bias) toward matrix-associated complexes over cell-associated complexes. […] Without being bound by a particular theory, the differences in the kinetics of the assays and/or differences in the nature of recombinant proteins may account for the noticeable differences seen in Ab19 binding to hGARP complexes observed in the above Octet assay (see Table 6) compared to the below MSD-SET assay (see Table 7 below). For example, the Octet assay measures kinetic on and off rates, while the MSD-SET assay measures binding at equilibrium. In addition, the recombinant antibodies used in the Octet assay were expressed as IgG1 antibodies in yeast, while the antibodies used in the MSD assay were expressed as IgG4 antibodies in mammalian cells.

In the next assay the test system is MBT2 tumors. The assay is described as follows: MBT2 syngeneic bladder cancer mouse model, combination with anti-PD-1. It is filed as in vivo. The settings on record: Ab3 10 and 30 mg/kg, Ab2 3 and 10 mg/kg, in combination with anti-PD-1. The text has this: This is a very aggressive and fast-growing tumor model, and is very difficult to overcome tumor progression with drug treatment.
Treatment with isotype control was used as a control group (data not shown).
Percent tumor growth delay (% TGD) is defined as the increase in the median time to endpoint in a treatment group compared to the untreated control, expressed as a percentage of the median time to endpoint (TTE) of the control:
T=median TTE for treatment

Assay [2] relates to liver fibrosis (liver hydroxyproline). The assay is described as follows: CCl4 model of liver fibrosis. The class given is in vivo, mouse. The settings on record: CCl4 mice, 4 weeks. As to the method: Carbon tetrachloride (CCl4) treatment of mice is a well-characterized model of liver fibrosis. In this model, Balb/C mice were dosed intraperitoneally (i.p.) twice weekly with 2.5 μl of a 20% CCl4 solution in corn oil per gram bodyweight. This CCl4 dosing was maintained throughout the duration of the study(6 weeks). After two weeks of CCl4 dosing, dosing with test articles started. […] After 6 weeks of CCl4 dosing (4 weeks of antibody treatment), mice were sacrificed and liver tissue was collected.
The hydroxyproline assay (see description above) was used to measure fibrosis in liver lysates from this study. […] The treatment effect of both TGFβ1-specific antibodies was similar to that of the pan-TGFβ inhibitor 1D11.

Assay [3] deals with Cell-associated proTGFβ1. The assay is described as follows: Octet binding, cell average of hGARP and hLRRC33 complexes. Also noted: species or system human. The settings on record: average KD of (E) and (F), read-out: (G) Cell AVRG. The text has this: (§2) Column (A) of the table provides monoclonal antibodies with discrete amino acid sequences. […] Columns (B), (C), (E) and (F) provide affinities of each of the listed antibodies, measured in KD, towards the antigen complex as indicated, respectively. […] Average KD values calculated from (B) and (C) are shown in the corresponding column (D), which collectively represents affinities of the antibodies to ECM- or matrix-associated proTGFβ1 complexes. Similarly, Average KD values calculated from (E) and (F) are shown in the corresponding column (G), which collectively represents affinities of the antibodies to cell-surface or cell-associated proTGF complexes. Finally, relative ratios between the average KD values from columns (D) and (G) are expressed as fold bias” in column (H). Thus, the greater the numerical of column (H) is, the greater bias exists for the particular antibody, when comparing binding preferences of the antibody for matrix-associated complexes to cell-surface complexes. This is one way of quantitatively representing and comparing inherent bias of antibodies to their target complexes. Such analyses may be useful in guiding the selection process for a candidate antibody for particular therapeutic use.
A general note: In BLI a coated tip is dipped into the sample, and binding shifts an interference pattern.

For assay [4], the system named is Cell-associated proTGFβ1. The assay is described as follows: MSD-SET binding, cell average of hGARP and hLRRC33 complexes. Also noted: species or system human. The settings on record: average KD of (E) and (F), read-out: (G) Cell AVRG.
Description: as §1

In assay [5] the target is Matrix-associated proTGFβ1. The assay is described as follows: Octet binding, ECM average of hLTBP1 and hLTBP3 complexes. Also noted: species or system human. The settings on record: average KD of (B) and (C), read-out: (D) ECM AVRG.
Description: as §2

A further assay has as its target proTGFβ1 C4S (Homo sapiens, UniProt P01137, C33S). The assay is described as follows: Octet Red384 pH-sensitivity of binding (dissociation at pH 7 and pH 5). As to conditions: dissociation at pH 7 vs pH 5. The procedure: The antibodies were tested against sensor-immobilized human proTGFβ1 C4S, which contains a mutation in the prodomain to facilitate proTGFβ1 expression without disulfide linkage to a presentation molecule.
Then, the tips were moved into an activation solution for 5 minutes. […] The activation solution is prepared immediately before use in the experiment. After tip activation, the tips were loaded for 3 minutes with a 10 ug/mL solution of human proTGFβ1 C4S in 10 mM sodium acetate buffer pH 5. After loading, the tips were quenched in ethanolamine pH 8.5 for 15 minutes. The tips were then baseline/blocked with a 20 minute incubation in 1× enhanced kinetics buffer. 1× enhanced kinetics buffer (1×EKB) is 1× kinetics buffer (ForteBio part no 18-1105 diluted from 10× with PBS) with the addition of 2% BSA (Sigma A3059-100G), 0.5 M NaCl (FisherS671-10), and 0.09% tween-20 (P7949-500M). […] The dissociation was performed in 1×KB at pH 7 and pH 5.

Sequence of proTGFβ1 C4S (P01137 30-390 C33S): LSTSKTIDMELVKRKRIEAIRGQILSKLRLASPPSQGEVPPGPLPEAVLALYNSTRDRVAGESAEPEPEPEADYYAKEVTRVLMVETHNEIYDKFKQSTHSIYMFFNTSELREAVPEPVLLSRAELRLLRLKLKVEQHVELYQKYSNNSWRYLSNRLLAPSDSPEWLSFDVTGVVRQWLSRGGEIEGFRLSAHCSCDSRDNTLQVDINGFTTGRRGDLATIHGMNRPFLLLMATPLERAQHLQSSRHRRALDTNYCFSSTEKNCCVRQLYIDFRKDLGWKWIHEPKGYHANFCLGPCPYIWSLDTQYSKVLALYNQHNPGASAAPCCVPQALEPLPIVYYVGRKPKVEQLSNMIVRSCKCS

B1: Ab2: isoform-selective inhibitor of TGFβ1 activation; VH SEQ ID NO: 13, VL SEQ ID NO: 15; human IgG4 (antibody, V domains shown)
VH: EVQLLESGGGLVQPGGSLRLSCAASGFTFADYAMTWVRQAPGKGLEWVSAISGSGAATYFADSVKGRFTISRDNSKNTLYLQMNSLRAEDTAVYYCARVSSGHWDFDYWGQGTLVTVSS
VL: DIQLTQSPSSLSASVGDRVTITCRASQSISSYLNWYQQKPGKAPKLLIYAASNLQSGVPSRFSGSGSGTDFTLTISSLQPEDFATYYCQQTYTVPLTFGGGTKVEIK
modifications: human IgG4 constant regions
For the molecule B1, the “(H) G/D (fold bias)” value in assay [1] worked out at 8.66 fold. For the same molecule, the “Tumor growth compared to PD-1 alone” value in the assay on MBT2 tumors is on record as “delayed tumor growth”. The Liver hydroxyproline entry in assay [2] (high dose 15 mg/kg i.p. twice weekly) is reported as “statistically significant reduction in liver hydroxyproline”; in assay [2] (lower doses 5 or 1.5 mg/kg i.p. twice weekly) it was “trend towards reduced liver hydroxyproline, but these differences are not statistically significant”. Besides, the Kd came out at 0.643 nM in the assay with Cell-associated proTGFβ1 [3], 2.3 nM with Cell-associated proTGFβ1 [4] and 0.157 nM in assay [5]. Besides, the “pH sensitivity of binding” value with proTGFβ1 C4S was “Ab2 is pH-sensitive”.
